Assay results taken from patent publication US20250277030A1, “ANTI-NAPI2B ANTIBODIES AND METHODS OF USE” (Zymeworks BC Inc., priority 2022, published 2025).

How the values were obtained:
HCC-78 cells = test: Internalization by flow cytometry in HCC-78 cells; format: cell-based, human; conditions: antibody 10 nM
Description: Briefly, antibodies were fluorescently labeled by coupling to a Fab fragment AF488 conjugate targeting anti-Human IgG Fe (Jackson Immuno Research Labs, West Grove, PA; Cat. No. 109-547-008) at a 1:1 molar ratio in PBS pH 7.4 (Thermo Fisher Scientific, Waltham, MA; Cat. No. 10010-023), for 24 hours at 4° C. Cells were seeded at 50,000 cells/well in RPMI 1640, ATCC modification (Thermo Fisher Scientific, Waltham, MA) supplemented with 10% fetal bovine serum (Thermo Fisher Scientific, Waltham, MA) in 48-well plates and incubated overnight under standard culturing conditions (37° C./5% CO2) to allow attachment. […] Following incubation, cells were dissociated, washed, and surface AF488 fluorescence was quenched using an anti-AF488 antibody (Life Technologies, Carlsbad, CA; Cat. No. A-11094) at 100 nM for 30 minutes at 4° C. […] (internalized fluorescence) was detected by flow cytometry on a BD LSRFortessa™ Cell Analyzer (BD Biosciences, Franklin Lake, NJ) with 1,000 minimum events collected per well. The AF488/FITC-A GeoMean (fluorescence signal geometric mean, proportional to anti-Human Fab AF488 labelling) was calculated for the live single cell population using FlowJo™ Version 10.8.1 (BD Biosciences, Franklin Lake, NJ) and plotted using GraphPad Prism Version 9 (GraphPad Software, San Diego, CA).

[1] = target: T1, NaPi2b expressed on IGROV-1 cells (Homo sapiens, UniProt O95436); test: Cellular binding of bivalent antibodies to IGROV-1 cells by flow cytometry (Example 13); conditions: IGROV-1, 24 hours at 4° C., NB = no cellular binding
T1 construct: IGROV-1 cells express endogenous NaPi2b at a high level; endogenous in cells; host or cells: IGROV-1
T1 sequence (O95436 1-690): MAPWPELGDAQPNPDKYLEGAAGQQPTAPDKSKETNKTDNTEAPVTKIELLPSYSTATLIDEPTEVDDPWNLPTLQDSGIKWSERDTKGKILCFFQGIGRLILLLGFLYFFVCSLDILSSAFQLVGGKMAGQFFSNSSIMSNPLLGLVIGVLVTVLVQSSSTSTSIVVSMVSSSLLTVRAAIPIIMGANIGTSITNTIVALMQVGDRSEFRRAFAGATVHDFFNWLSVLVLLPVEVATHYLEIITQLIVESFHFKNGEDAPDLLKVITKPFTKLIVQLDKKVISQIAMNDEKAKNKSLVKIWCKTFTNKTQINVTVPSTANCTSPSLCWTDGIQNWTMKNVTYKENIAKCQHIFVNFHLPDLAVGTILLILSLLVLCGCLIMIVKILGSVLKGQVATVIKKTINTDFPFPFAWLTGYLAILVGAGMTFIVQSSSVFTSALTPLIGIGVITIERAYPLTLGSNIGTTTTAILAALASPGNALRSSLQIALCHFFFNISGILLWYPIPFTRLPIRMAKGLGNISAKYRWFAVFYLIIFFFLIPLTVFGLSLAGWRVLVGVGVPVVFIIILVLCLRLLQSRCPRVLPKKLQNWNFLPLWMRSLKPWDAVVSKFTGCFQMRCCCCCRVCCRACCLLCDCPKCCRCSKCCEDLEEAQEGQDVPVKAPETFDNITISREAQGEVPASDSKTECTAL
Description: IGROV-1 cells express endogenous NaPi2b at a high level.
(§1) Briefly, cells were seeded at 50,000 cells/well in conical-bottom 96-well plates and treated with test antibody for 24 hours at 4° C. to prevent internalization. Palivizumab (anti-RSV antibody, v22277) was included as a negative control. […] Following incubation, cells were washed and stained with anti-Human IgG Fc AF647 conjugate (Jackson Immuno Research Labs, West Grove, PA; Cat. No. 109-605-098) at 4° C. for 30 min. Following incubation and washing, fluorescence was detected by flow cytometry on a BD LSRFortessa™ Cell Analyzer (BD Biosciences, Franklin Lake, NJ) with 1,000 minimum events collected per well. The AF647/APC-A GeoMean (fluorescence signal geometric mean, proportional to anti-Human AF647 binding) was calculated for the live cell population using FlowJo™ Version 10.8.1 (BD Biosciences, Franklin Lake, NJ) and plotted for each test antibody using GraphPad Prism Version 9 (GraphPad Software, San Diego, CA).

[2] = Capillary isoelectric focusing (cIEF); format: physicochemical; conditions: main isoform; 0.5 mg/mL
Description: The isoelectric point was measured by capillary isoelectric focusing (cIEF), the propensity for self-aggregation was measured by Affinity-capture self-interaction nanoparticle spectroscopy (AC-SINS) and non-specific binding was measured by NS-ELISA, as described below.
cIEF was carried out using Maurice C. (ProteinSimple®) system, System Suitability Kit and Method Development Kit. System suitability standard, fluorescence calibration standard, cartridge and samples were prepared according to vendor's recommendations. The capillary was automatically calibrated with a fluorescence standard preconditioned with Maurice cIEF System Suitability Kit to ensure the capillary was functioning properly. The antibody samples were diluted to a concentration of 0.5 mg/mL in a final volume of 40 μL in Gibco™ Distilled Water, and mixed Maurice cIEF Method Development Kit Samples. The samples were then vortexed, centrifuged and the supernatant pipetted into individual wells of a 96-well plate. All electropherograms were detected with UV absorbance at 280 nm. All data analyses were performed using vendor software Compass for iCE (ProteinSimple®).

[3] = target: T1, NaPi2b expressed on IGROV-1 cells; test: Cellular binding to IGROV-1 cells by flow cytometry (Example 19); conditions: NB = no binding (apparent Kd >150 nM)
Description: as §1
The ability of the humanized antibody variants v38591 and v29456 to bind to NaPi2b expressed on cells was assessed on endogenous NaPi2b-expressing tumor cell lines IGROV-1 (ovarian adenocarcinoma) and TOV-21G (ovarian carcinoma) by flow cytometry. IGROV-1 and TOV-21G cells express endogenous NaPi2b at high and moderate levels, respectively, as described in Example 10.
Cellular binding was performed according to methods described in Example 13.

Bmax (MFI) [1]: 40,867 MFI | Curve Hill Slope (h) [1]: 1.1 | Kd ([1]; apparent Kd): 1.1 nM | Bmax (MFI) [3]: 20,096 MFI | Curve Hill Slope (h) [3]: 1.1 | Kd [3]: 1.28 nM
B1: v29456: humanized anti-NaPi2b IgG1/kappa antibody H1L2; VH SEQ ID NO:24, VL SEQ ID NO:29 (antibody, V domains shown)
VH: QVQLVQSGAEVKKPGASVKVSCKASGFTFTSYNVHWVRQAPGQGLEWMGAISPGNGDLSYAQKFQGRVTMTRDTSTSTVYMELSSLRSEDTAVYYCARGRTGMGAVDYWGQGTLVTVSS
VL: DVQMTQSPSSLSASVGDRVTITCRASQDVYSYLNWYQQKPGKAVKLLIYYTSRLQSGVPSRFSGSGSGTDYTLTISSLQPEDFATYYCQQYNIFPWTFGQGTKLEIK
modifications: v29452, v29456, v29460 VH (H1); v29453, v29454, v29455, v29456 VL (L2)
Internalized Fluorescence Fold-Over Palivizumab (HCC-78 cells; HCC-78, 5 hrs): 25.3 fold | Internalized Fluorescence Fold-Over Palivizumab (HCC-78 cells; HCC-78, 24 hrs): 59.9 fold | cIEF pI [2]: 8.53
